In patent US20060205649A1:

Legend:
[1] = molecular target: MYC-tagged NRSF protein; test: co-immunoprecipitation (anti-KT3) of HEK cell protein incubated with 0-1000 nM NADH, anti-MYC Western blot; the varied concentration is that of NADH, not of a protein
[2] = molecular target: NRSF (endogenous, JTC-19 rat lung fibroblasts) (rat) (UniProt O54963); test: cell-based or functional assay
Chain of NRSF (endogenous, JTC-19 rat lung fibroblasts) (rat) (O54963 whole entry): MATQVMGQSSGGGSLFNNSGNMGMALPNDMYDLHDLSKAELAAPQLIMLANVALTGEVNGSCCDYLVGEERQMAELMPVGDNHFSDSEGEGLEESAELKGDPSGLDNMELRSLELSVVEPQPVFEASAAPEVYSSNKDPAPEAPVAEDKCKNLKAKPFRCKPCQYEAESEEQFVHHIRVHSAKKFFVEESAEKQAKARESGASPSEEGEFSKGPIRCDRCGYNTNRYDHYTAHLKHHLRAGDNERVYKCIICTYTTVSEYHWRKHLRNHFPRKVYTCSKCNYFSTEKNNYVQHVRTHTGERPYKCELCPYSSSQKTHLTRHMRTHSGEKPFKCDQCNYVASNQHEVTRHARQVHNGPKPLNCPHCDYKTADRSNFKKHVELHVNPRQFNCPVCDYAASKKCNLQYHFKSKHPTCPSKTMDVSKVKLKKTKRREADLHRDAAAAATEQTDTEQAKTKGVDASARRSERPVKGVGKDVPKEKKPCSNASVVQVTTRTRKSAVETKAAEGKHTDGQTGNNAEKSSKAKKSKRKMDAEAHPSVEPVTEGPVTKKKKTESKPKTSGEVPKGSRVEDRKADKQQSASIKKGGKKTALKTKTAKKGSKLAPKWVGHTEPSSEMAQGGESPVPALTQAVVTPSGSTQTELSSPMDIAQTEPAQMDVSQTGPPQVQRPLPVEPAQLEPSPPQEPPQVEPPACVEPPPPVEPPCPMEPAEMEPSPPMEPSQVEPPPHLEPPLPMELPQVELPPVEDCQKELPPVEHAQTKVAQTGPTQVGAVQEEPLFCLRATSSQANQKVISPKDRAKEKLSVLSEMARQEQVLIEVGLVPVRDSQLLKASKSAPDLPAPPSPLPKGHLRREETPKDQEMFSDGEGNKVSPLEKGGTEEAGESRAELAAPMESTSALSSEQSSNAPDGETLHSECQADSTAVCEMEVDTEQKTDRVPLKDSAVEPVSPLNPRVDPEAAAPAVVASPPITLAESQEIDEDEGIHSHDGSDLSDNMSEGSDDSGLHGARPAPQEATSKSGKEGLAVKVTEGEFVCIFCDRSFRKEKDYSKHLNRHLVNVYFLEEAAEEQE

Chain of KT3-tagged CtBP2 (P56546 whole entry): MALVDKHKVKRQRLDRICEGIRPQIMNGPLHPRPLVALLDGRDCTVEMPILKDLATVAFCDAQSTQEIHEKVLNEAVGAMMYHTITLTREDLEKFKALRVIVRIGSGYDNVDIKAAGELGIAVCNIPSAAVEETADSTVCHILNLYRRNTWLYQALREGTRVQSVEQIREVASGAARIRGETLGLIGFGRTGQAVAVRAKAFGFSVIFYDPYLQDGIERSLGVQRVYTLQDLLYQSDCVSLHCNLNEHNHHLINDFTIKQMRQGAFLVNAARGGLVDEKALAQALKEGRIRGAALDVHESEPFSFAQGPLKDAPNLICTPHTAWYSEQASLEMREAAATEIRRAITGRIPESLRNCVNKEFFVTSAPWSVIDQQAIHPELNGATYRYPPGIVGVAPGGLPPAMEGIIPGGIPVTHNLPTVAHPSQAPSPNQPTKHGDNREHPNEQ
Chain of MYC-tagged NRSF protein (Q13127 whole entry): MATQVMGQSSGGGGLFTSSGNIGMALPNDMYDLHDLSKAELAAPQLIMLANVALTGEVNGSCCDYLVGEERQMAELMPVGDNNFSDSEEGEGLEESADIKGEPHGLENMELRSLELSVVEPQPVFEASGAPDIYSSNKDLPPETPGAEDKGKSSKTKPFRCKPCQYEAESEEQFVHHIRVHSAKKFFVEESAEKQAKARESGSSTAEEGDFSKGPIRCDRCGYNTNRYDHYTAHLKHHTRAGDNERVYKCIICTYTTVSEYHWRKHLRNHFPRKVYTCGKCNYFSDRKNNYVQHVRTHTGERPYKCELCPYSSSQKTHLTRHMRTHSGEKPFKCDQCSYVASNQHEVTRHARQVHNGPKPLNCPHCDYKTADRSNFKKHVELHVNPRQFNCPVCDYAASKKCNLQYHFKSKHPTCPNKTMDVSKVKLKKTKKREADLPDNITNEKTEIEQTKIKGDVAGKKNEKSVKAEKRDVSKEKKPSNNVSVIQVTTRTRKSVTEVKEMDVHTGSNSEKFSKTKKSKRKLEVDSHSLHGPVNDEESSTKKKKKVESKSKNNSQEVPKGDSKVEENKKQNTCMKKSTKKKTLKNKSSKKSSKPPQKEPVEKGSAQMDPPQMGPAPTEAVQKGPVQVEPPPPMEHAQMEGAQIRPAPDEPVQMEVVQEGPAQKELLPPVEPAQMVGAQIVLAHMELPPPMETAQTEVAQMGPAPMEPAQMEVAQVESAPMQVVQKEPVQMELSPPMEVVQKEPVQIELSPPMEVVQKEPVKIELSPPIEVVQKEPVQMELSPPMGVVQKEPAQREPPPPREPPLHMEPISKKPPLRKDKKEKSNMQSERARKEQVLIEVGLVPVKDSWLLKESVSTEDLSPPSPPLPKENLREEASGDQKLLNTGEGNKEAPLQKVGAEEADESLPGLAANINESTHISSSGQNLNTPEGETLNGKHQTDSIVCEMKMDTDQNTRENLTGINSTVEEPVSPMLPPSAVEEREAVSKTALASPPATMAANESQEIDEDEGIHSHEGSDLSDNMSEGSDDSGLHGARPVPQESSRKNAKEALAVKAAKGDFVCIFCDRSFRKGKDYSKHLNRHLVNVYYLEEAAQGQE

| NADH concentration at half maximal binding of CtBP to NRSF [1] [nM] | amount of CtBP recruited to CHRM4, the NRSF target gene (ChIP, JTC-19 cells grown with 2-DG or glucose) [2] [fold] | Substance |
| --- | --- | --- |
| 70 |  | KT3-tagged CtBP2 |
|  | 5 | CtBP (endogenous, JTC-19 rat lung fibroblasts) (from UniProt F7FG31 1-441) |
